Reference: US20190119389A1 (POTENZA THERAPEUTICS, published 2019)
Residue numbers refer to the chain shown, from its start.

Legend:
recombinant human NRP-1 = target: T1, recombinant human NRP-1 (human, UniProt O14786 22-856, limits assumed); experiment: blocking ELISA: SEMA3A coated, biotinylated human NRP-1 preincubated with IgG1 antibody; competitor SEMA3A
T1 construct: also called biotinylated human NRP-1

Cyno NRP-1 His = target: T2, Cyno NRP-1 His (cynomolgus monkey, UniProt O14786 22-856 (human entry), limits assumed); experiment: BLI ForteBio, IgG1 N297A on AHQ sensor, 100 nM monomeric antigen, 1:1 fit
T2 construct: Recombinant monomeric protein; also called cynomolgus monkey NRP-1-His; cNRP-1; not shown: His tag
T2 chain: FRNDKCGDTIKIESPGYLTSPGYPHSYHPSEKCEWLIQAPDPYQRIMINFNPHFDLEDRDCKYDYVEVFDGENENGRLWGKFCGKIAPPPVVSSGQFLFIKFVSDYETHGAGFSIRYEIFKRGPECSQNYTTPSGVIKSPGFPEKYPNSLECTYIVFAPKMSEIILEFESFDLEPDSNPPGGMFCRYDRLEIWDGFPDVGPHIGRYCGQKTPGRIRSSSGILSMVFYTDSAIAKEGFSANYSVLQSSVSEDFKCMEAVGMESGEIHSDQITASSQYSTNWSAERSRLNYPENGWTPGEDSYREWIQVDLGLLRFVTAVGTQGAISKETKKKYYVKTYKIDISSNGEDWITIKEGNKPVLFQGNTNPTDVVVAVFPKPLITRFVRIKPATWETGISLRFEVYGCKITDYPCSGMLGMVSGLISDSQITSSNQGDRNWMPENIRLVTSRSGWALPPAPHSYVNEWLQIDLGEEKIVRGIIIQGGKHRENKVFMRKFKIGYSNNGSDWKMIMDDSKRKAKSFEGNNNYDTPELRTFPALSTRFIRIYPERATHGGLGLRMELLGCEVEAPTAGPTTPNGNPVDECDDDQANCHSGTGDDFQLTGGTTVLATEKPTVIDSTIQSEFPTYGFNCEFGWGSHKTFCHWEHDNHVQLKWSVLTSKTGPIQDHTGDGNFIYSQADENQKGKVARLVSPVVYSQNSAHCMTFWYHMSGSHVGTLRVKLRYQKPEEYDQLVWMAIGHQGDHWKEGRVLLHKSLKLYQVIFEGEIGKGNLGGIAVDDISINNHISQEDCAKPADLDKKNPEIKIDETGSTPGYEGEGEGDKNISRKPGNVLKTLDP

Mouse NRP-1 His = target: T3, Mouse NRP-1 His (mouse, UniProt P97333 22-856); experiment: as above
T3 construct: Recombinant monomeric protein; also called mNRP-1; not shown: His tag

Human NRP-1 His [1] = target: T4, Human NRP-1 His (human, UniProt O14786 22-856); experiment: as above
T4 construct: Recombinant monomeric protein; Biotinylated in the MSD-SET assay; also called hNRP-1; not shown: His tag

Human NRP-1 His [2] = target: T4, Human NRP-1 His; experiment: MSD-SET solution equilibrium titration, Fab

T1 sequence (O14786 22-856 V179A limits assumed): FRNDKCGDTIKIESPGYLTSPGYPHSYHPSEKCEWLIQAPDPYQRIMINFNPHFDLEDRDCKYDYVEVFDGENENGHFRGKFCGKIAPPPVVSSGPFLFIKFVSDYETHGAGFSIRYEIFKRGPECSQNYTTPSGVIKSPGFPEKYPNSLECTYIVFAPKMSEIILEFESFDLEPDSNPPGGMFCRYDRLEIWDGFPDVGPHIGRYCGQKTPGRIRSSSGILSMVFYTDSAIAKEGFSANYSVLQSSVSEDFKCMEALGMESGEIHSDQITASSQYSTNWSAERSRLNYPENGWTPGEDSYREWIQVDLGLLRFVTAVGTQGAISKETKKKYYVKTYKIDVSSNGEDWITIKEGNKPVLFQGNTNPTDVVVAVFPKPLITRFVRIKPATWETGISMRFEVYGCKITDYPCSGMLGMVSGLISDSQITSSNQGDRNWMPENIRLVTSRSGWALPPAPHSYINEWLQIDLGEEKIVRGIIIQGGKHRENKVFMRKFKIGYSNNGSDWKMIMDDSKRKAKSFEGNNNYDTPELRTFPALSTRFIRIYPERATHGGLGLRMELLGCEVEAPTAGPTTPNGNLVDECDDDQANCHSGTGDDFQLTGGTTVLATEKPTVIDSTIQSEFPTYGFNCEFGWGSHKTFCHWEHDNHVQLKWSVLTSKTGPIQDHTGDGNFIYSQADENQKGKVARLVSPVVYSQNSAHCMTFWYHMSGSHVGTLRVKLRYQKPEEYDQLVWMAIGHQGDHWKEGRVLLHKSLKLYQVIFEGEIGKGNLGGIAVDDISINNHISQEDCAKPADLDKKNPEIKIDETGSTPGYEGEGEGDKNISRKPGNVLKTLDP

B1: MAB5 (antibody, V domains shown)
VH: QVQLVQSGAEVKKPGASVKVSCKASGYTFTSYYMHWVRQAPGQGLEWMGIINPQGGDTSYAQKFQGRVTMTRDTSTSTVYMELSSLRSEDTAVYYCARDRGMYYASGFGPWGQGTLVTVSS
VL: EIVMTQSPGTLSLSPGERATLSCRASQSVSSSYLAWYQQKPGQAPRLLIYGASNRATGIPDRFSGSGSGTDFTLTISRLEPEDFAVYYCQQLSSFPITFGGGTKVEIK
B1 showed an IC50 (recombinant human NRP-1) of 5.9 nM, a Kd (Cyno NRP-1 His) of 4.09 nM and a Kd (Mouse NRP-1 His) of 5.06 nM. The Kd (Human NRP-1 His [1]) was 3.23 nM.

B2: MAB5 Fab (Fab, V domains shown)
VH: B1 VH
VL: B1 VL
Binder B2 has a Kd (Human NRP-1 His [2]) of 0.28 nM.

B3: MAB6 Fab (Fab, V domains shown)
VH: B1 VH with E10K, A40V, G109N
VL: B1 VL
Work on B3 yielded a Kd (Human NRP-1 His [2]) of 0.45 nM.

B4: MAB1 (antibody, V domains shown)
VH: QVQLVQSGAGVKKPGASVKVSCKASGYTFRSYYMLWVRQAPGQGLEWMGIIDPSDGSTSYAQKFQGRVTMTRDTPTSTVYMELSSLRSEDTAVYYCARGARRITGYGMDVWGQGTTVTVSS
VL: DIQMTQSPSSVSASVGDRVTITCRASQGISSWLAWYQQKPGKAPKLLIYAASNLQSGVPSRFSGSGSGTDFTLTISSLQPEDFATYYCQQASVFPFTFGGGTKVEIK
In the case of B4, the IC50 (recombinant human NRP-1) is reported as 2.9 nM, the Kd (Cyno NRP-1 His) is reported as 2.16 nM and the Kd (Mouse NRP-1 His) is reported as 2.12 nM. For the same binder, the Kd (Human NRP-1 His [1]) was 1.87 nM.

B5: MAB13 Fab (Fab, V domains shown)
VH: QVQLQQWGAGLLKPSETLSLTCAVYGGSFRGYYWEWIRQPPGKGLEWIGEISHSGSTNYNPSLKSRVTISVDTSKNQFSLKLSSVTAADTAVYYCARARPYREPYGMDVWGQGTTVTVSS
VL: B4 VL with M4L, G28D, N53S, A91E, S92L, V93A, F96R
With B5 the Kd (Human NRP-1 His [2]) was 0.54 nM.

B6: MAB3 Fab (Fab, V domains shown)
VH: QAQLVQSGAEVKKPGASVKVSCKASGYTFSRYYMHWVRQAPGQGLEWMGIINPLGGSTLYAQKFQGRVTMTRDTSTSTVYMELSSLRSEDTAVYYCARDLGYYGSGMHAWGQGTLVTVSS
VL: B4 VL with S31R, N53S, S92N, V93L, F94L
In the case of B6, the Kd (Human NRP-1 His [2]) is reported as 0.06 nM.

B7: MAB3 (antibody, V domains shown)
VH: B6 VH
VL: B4 VL with S31R, N53S, S92N, V93L, F94L
B7 was tested, and the IC50 (recombinant human NRP-1) was 0.6 nM, the Kd (Cyno NRP-1 His) was 1.19 nM and the Kd (Mouse NRP-1 His) was 0.99 nM. The Kd (Human NRP-1 His [1]) was 1.08 nM.

B8: MAB1 Fab (Fab, V domains shown)
VH: B4 VH
VL: B4 VL
For B8, the Kd (Human NRP-1 His [2]) was 0.32 nM.

B9: MAB13 (antibody, V domains shown)
VH: B5 VH
VL: B4 VL with M4L, G28D, N53S, A91E, S92L, V93A, F96R
For B9, the IC50 (recombinant human NRP-1) was 3.4 nM, the Kd (Cyno NRP-1 His) was 1.58 nM and the Kd (Mouse NRP-1 His) was 7.42 nM. For the same binder, the Kd (Human NRP-1 His [1]) was 1.41 nM.

B10: MAB2 (antibody, V domains shown)
VH: B4 VH with G10E, T74A, P75S, T118I
VL: B4 VL
B10 was tested, and the IC50 (recombinant human NRP-1) was 3.1 nM, the Kd (Cyno NRP-1 His) was 2.43 nM and the Kd (Mouse NRP-1 His) was 1.94 nM. It also gave a Kd (Human NRP-1 His [1]) of 1.86 nM.

B11: MAB14 Fab (Fab, V domains shown)
VH: B5 VH with I37S, S84P
VL: B4 VL with M4L, G28D, N53S, A91E, S92L, V93A, F96R
With B11 the Kd (Human NRP-1 His [2]) was 0.28 nM.

B12: MAB2 Fab (Fab, V domains shown)
VH: B4 VH with G10E, T74A, P75S, T118I
VL: B4 VL
With B12 the Kd (Human NRP-1 His [2]) was 0.23 nM.

B13: MAB4 Fab (Fab, V domains shown)
VH: B6 VH with A2V, A109V
VL: B4 VL with S31R, N53S, S92N, V93L, F94L
B13 showed a Kd (Human NRP-1 His [2]) of 0.046 nM.

B14: MAB4 (antibody, V domains shown)
VH: B6 VH with A2V, A109V
VL: B4 VL with S31R, N53S, S92N, V93L, F94L
With B14 the IC50 (recombinant human NRP-1) was 3.9 nM, the Kd (Cyno NRP-1 His) was 0.925 nM and the Kd (Mouse NRP-1 His) was 0.746 nM. The Kd (Human NRP-1 His [1]) was 0.851 nM.

B15: MAB14 (antibody, V domains shown)
VH: B5 VH with I37S, S84P
VL: B4 VL with M4L, G28D, N53S, A91E, S92L, V93A, F96R
Binder B15 has an IC50 (recombinant human NRP-1) of 3.1 nM, a Kd (Cyno NRP-1 His) of 1.1 nM and a Kd (Mouse NRP-1 His) of 5 nM. For the same binder, the Kd (Human NRP-1 His [1]) was 1.12 nM.

B16: MAB8 Fab (Fab, V domains shown)
VH: EVQLLESGGGLVQPGGSLRLSCAASGFTFASYAMVWVRQAPGKGLEWVSIISGSGGSTYYADSVKGRFTISRDNSKNTLYLQMNSLRAEDTAVYYCAKDPGYDSSRYYYSNYGMDVWGQGTTVTVSS
VL: DIQMTQSPSSLSASVGDRVTITCRASQSISSYLNWYQQKPGKAPKLLIYGASSLQSGVPSRFSGSGSGTDFTLTISSLQPEDFATYYCQQTYSLYTFGGGTKVEIK
B16 showed a Kd (Human NRP-1 His [2]) of 0.096 nM.

B17: MAB10 Fab (Fab, V domains shown)
VH: B16 VH with A30S, Y32V, I50A, S57A
VL: B16 VL
Binder B17 has a Kd (Human NRP-1 His [2]) of 0.064 nM.

B18: MAB12 Fab (Fab, V domains shown)
VH: B16 VH with A30S, Y32V, I50A, S57A, K65E
VL: B16 VL
B18 showed a Kd (Human NRP-1 His [2]) of 0.026 nM.

B19: MAB11 Fab (Fab, V domains shown)
VH: B16 VH with A30S, Y32V, I50A, S57A, K65E, N84S
VL: B16 VL
Binder B19 has a Kd (Human NRP-1 His [2]) of 0.021 nM.

B20: MAB9 Fab (Fab, V domains shown)
VH: B16 VH with A30K, S57A
VL: B16 VL
B20 was tested, and the Kd (Human NRP-1 His [2]) was 0.019 nM.

B21: MAB15 (antibody, V domains shown)
VH: QVQLQQWGAGLLKPSETLSLTCAVYGGSFVKYYWSWIRQPPGKGLEWIGDIWHSGMTNYNPSLKSRVTISVDTSKNQFSLKLSSVTAADTAVYYCARGPGYDSSGYSRRFDPWGQGTLVTVSS
VL: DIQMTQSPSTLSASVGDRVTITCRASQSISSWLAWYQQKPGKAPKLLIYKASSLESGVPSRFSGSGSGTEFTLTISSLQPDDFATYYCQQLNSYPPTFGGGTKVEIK
Work on B21 yielded a Kd (Cyno NRP-1 His) of 9.2 nM, a Kd (Mouse NRP-1 His) of 54.1 nM and a Kd (Human NRP-1 His [1]) of 0.851 nM.

B22: MAB15 Fab (Fab, V domains shown)
VH: B21 VH
VL: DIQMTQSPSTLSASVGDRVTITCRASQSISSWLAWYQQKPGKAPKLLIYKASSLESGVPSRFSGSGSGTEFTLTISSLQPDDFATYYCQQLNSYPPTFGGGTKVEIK
B22 was tested, and the Kd (Human NRP-1 His [2]) was 0.18 nM.
